What was measured:
[1] = molecular target: Type II ClyA-CS nanopore (Salmonella typhi) (UniProt Q8Z727); assay: single-channel current recording, planar lipid bilayer, -35 mV
[2] = molecular target: Type I ClyA-CS nanopore (Salmonella typhi) (UniProt Q8Z727); assay: as above
[3] = molecular target: Type III ClyA-CS nanopore (Salmonella typhi) (UniProt Q8Z727); assay: as above
[4] = molecular target: Type II ClyA-CS nanopore (Salmonella typhi) (UniProt Q8Z727); assay: single-channel current recording, planar lipid bilayer, -150 mV
[5] = molecular target: Type I ClyA-CS nanopore (Salmonella typhi) (UniProt Q8Z727); assay: as above
[6] = molecular target: Type II ClyA-CS nanopore (Salmonella typhi) (UniProt Q8Z727)
[7] = molecular target: Type I ClyA-CS nanopore (Salmonella typhi) (UniProt Q8Z727)

Substance “human thrombin (from UniProt P00734 328-622) (enzyme)” has an HT Level 1 at -35 mV, IRES % (residual current) [1] of 68%, an HT Level 2 at -35 mV, IRES % (residual current) [1] of 31% and an HT Level 1 at -35 mV, IRES % (residual current) [2] of 56%. The HT Level 2 at -35 mV, IRES % (residual current) [2] was 23%, the HT Occupancy of L2 at -35 mV, % [2] was 30% and the occupancy of the more superficial binding site (level 1) at -35 mV, % [2] was 70%. It also gave an HT Level 2 at -35 mV, IRES % (residual current) [3] of 32%, an HT Occupancy of L2 at -35 mV, % [3] of 100% and a duration of HT blockades at -35 mV [3] of 55 ms. For the same substance, the HT Level 2 (-150 mV), IRES, % (residual current) [4] was 31%, the HT Occupancy of L2 at -150 mV, % [4] was 100% and the HT Level 2 (-150 mV), IRES, % (residual current) [5] was 23%. It also gave an HT Occupancy of L2 at -150 mV, % [5] of 100%, an HT Dwell time at -150 mV [6] of 235 ms and an HT Dwell time at -150 mV [7] of 1 ms.
